From the DeepSol protein solubility set

experiment: soluble on expression in E. coli; label from the status in PepcDB or PDB records

| Sequence | soluble on expression in E. coli |
| --- | --- |
| MDDVLDRIMGSAPSQSGSSLNRTPKRDHRSNPDMHEPSSKRSAPMFTTPKSATPIGRDSFATLDTLNVQMNMFTMDIKDMPHKLQRLQVDVIICSSNGKQINVNLGVLAAKGDVNSHNRRLAQFFIMRAVHDKLPEKFSGKSHHFLAYDCAATLYVPEGVYTGDAEEQVTLKIDDFPKDEWKIVSKLSRRKDDSYLVTLKPAGFVHTQGEHARAEANRMELTRCVEIITSQMLNNEDYYQFANCPNREAVAVDEVVTAEASPEIHVEVTVAAVLIQEIIVEVTATEVERYRDESRGCRDMNDSRRDSSNGVDYSPSDAAEVEKALGERGSTKRFIEDALKGLDVECTRLKGNLIRVCSIAENNAENTSFMMKGDKGEQEITVVQYFQLQYNIKLKHSRLPLVVSKRFKHESFFPMELLQIAPGQRIKVNKMSPTVQSSMTGMNASMPEQHVKLVQNILIDNLKLKQSKYMDAFGIRLMSTKPLQLPAKLLPPAQIKFKNQTYMPEMSRPAFRTQDKFVQPAHIGRIGVVVFDNCIQMRQAESFCDNLAAICRDNGIKIDQDSRDWTICEINSSDAAGIQNRMRKWADDKVDILFAITREKKPDVHDILKYYEESIGLQTIQVCQQTVDKMMGGGGGRQTIDNVMRKFNLKCGGTNFFDEIPSSVRGRAVCSNSETLSKKLFEHVQFIGFEISHGAARTLFDRSRSQLDGEPSVVGVSYSLTNSTQLGGFTYLQTQKEYKLQKLGEVFPKCVQSYKEHSRRLPTRIVIYRVGAGEGDFKRVKEEIEEIRGTFDKIQPGYRPHLVVVIAQIASHARVFPSNITGRKAMEQNVPSGTCVDNVPTSYGYDEFILSSRTPLIGTVRPCKYTILINDANWSKNEIMHLTYFRAFGHQVSYKPPSVPDVLYAAENLAKRGRNNYKIHQRHVNLQAVENSIIGDHSELINEDMREELAAAIVDHMSVAMNGMTISKRNFWA | not soluble |
| MDDVYRAFDSVGNILNFRIVEKEQKGFWVSTKIKTVVFDSADMSSDDLFLKCLQSSYKAYFETEPAGLDKRQLMKTLIQKCGFSC | not soluble |
| MDEDTEDWETQLQANRDEKDRFFSEHRQSPIPPEERDDFDGLSYFDPDPDYRVEATVTVHETPESVDLETSDDRTVRYLHVATLSFDLDGESRDLHAFRQAADESRTLFVPFRDKTTGQQSYDGGRYMELEPDRDLSDGDEITLDFNLAYSPFCAYSDTFSCPLPPESNWLETAVTAGERTDLEHHHHHH | soluble |
| MDEEGASVVITIKNEAKNIQKLLDSLFNNDYEHFEVVVVDDMSNDGTEGIVKKYDKVKYIRTRCSRGEGRNIGAMNSSFENILFTDGDAIVSNGWIGGMVSVLNNGFEIAIGKTVYTGKKRYIQDRVKIYFNGIEITAPSVNLAYKKRAFFSLGGFDKRFVTAEDIDLNLRAAMSGFKFGFCNECVVYAKVRDSFISFLKQAFWNGYGRAQLEEKHPGMLKKTDIRLGHNFYDFMHMSAGAAGYLLYKLR | soluble |
| MDEIDLRILKILQYNAKYSLDEIAREIRIPKSTLSYRIKKLEKDGVIKGYYAYINPASLNLDYIVITSVKAKYGKNYHVELGNKLAQIPGVWGVYFVLGDNDFIVMARYKTREEFMEKFLERVMSIPEVERASTQVVVKIIKESPNIVIF | soluble |
| MDFITDMSKNQRLELQNRLAQYETSLMVMSHNGDVPVITGFNVMRVTTMLDALKVELPAVAVLGDDAQDLAYVFGARPLAVGVNIIRVVDVPGQQPSALVDAELGALHEVSMVRVLNDIADEQLVKANM | soluble |
| MDFPRIIMARNPIYFESIQIGEKIEGLPRTVTETDIWTFAYLTADFFPLHTDVEFAKKTIFGKPIAQGMLVLSIALGMVDQVILSNYDVSSVIAFFGIKDVRFLRPVFIGDTIAASAEVVEKQDFDEKSGVVTYKLEVKNQRGELVLTALYSALIRKTPSK | soluble |
| MDFQNFVATLESFKDLKSGISGSRIKKLTTYALDHIDIESKIISLIIDYSRLCPDSHKLGSLYIIDSIGRAYLDETRSNSNSSSNKPGTCAHAINTLGEVIQELLSDAIAKSNQDHKEKIRMLLDIWDRSGLFQKSYLNAIRSKCFAAALEHHHHHH | soluble |
| MDFTQQLQACVTQANQALSRFIAPLPFQNTPVVEAMQYGALLGGKRLRPFLVYATGQMFGVSTATLDAPAAAVECIHAYSLIHDDLPAMDDDDLRRGLPTCHIKFGEANAILAGDALQTLAFAIISDAPMPEVADRDRIAMIAELANASGIAGMCGGQALDLAAEGQRITLDALERIHRHKTGALIRAAVRLGALSAGDKGRNTLPILDRYAESIGLAFQVQDDILDVVGDTATLGKRQGADQQLGKSTYPALLGLEQARNKARDLIEDARQSLHQLAAQSLDTSALEALANYIIQRDK | not soluble |
| MDGNAPEPRYWEKMRLVAEVLKAVEGPIYIATHVDPDGDAIGSSLGLYRALKALGKEAYWVADPPRFLRFLPKEEEYSDPVEKLPPGATLVALDSAEPSRVVGVPVEGFVINIDHHGTNPRFGHLHVVDPSKAATAQMVKDLIDLLGVEWTAEIATPVLTGILTDTGNFRFANTTPEVLRVAAELLGYGVKLAELTDRLQFRPPSYFRLMGQVLSTVAFHFGGLLVTAHLPEDAGAEEDSDDFVGLIRYVEGSVVSVFLRKREEGVKVSIRSRGGVSAQNIALKLGGGGHVPAAGATLKGLDLDQAYERVLEAVREELTRAGYL | soluble |
| MDGRPLNRTTRAVAMIAVTIPAHNEQALIGPCLQSIRVAAQHPALQGEAVEIHVALDRCTDQTGVIARAHGAITQEVCGGVGVARAAAASAAIARGAHWLACTDADTRVPPDWLMAQLACAADAFCGVVEVTDWRDHLSQTRAAFLASEIRHDGHPHVHGANLGMRTSAYLAAGGFSNASSSEDVALVAALEQAGMRIARLASPVVNTSARRSARASGGFADYLLRLEAALLAASPSLGLEHHHHHH | not soluble |
| MDHDKLEANLLDHALTKYLKSTKQLDEATVPKHVNNVRGFILRIIYRHGSCTIKDILKEVTLSPSATTTALNHLEQEGFIERSRNNNDRRTVWITLSESGRGAAEQMIENRQQLIDGMFERLTAEEKKTFLAIIAKLAQ | not soluble |
| MDHHHHHHHHASENLYFQGHMNLDLAYRSFVLGVAGHPQVERLIKHRAKGLVRRYVAGETLEEALKAAEALEREGVHAILDLLGEMVRTEEEARAFQRGLLELVWALAGKPWPKYISLKLTQLGLDLSEDLALALLREVLREAEPRGVFVRLDMEDSPRVEATLRLYRALREEGFSQVGIVLQSYLYRTEKDLLDLLPYRPNLRLVKGAYREPKEVAFPDKRLIDAEYLHLGKLALKEGLYVAFATHDPRIIAELKRYTEAMGIPRSRFEFQFLYGVRPEEQRRLAREGYTVRAYVPYGRDWYPYLTRRIAERPENLLLVLRSLVSG | soluble |
| MDHLDDLVDLYEYRVEDLLQGRTPKGGKQALLRLRQLLIQSRLPGPLAKRFRQADARFRAQRRALAPEAQAPVELPAIAVPEEPEPPPPEASPLAALALKVWRLQVERDVKARLEALLAGRREELRLIHAFLDNFALYRETPGFKRDFNLSRFVPTRPIPSLSDTLVDLDDPKVAQALVVDFLETARELPKLLPLPPEETRTYVRRFLNRLLEWEGAYNLPPKPDLPALRRALEEARRLGAGEKEVAQLEERLRKAAQEARRRDLLLEEEKGRFRVALEKVVALLSLLPTPQGETPWPRVPEPGQEEEGLLTLRLAPGPVALGPLTLTLSHAGGTWYLGLEGEDHPLEDTLVLPWEDLEVWAVRENDLLHLRLEARSGLRLYELLAEGRLLAYLLHPGKDYAYLRLLRGLSTRLKGEFQAQAFGPALAEKYRKAPEEALQDFARKGLELTLKRLGQADPLPLLQEVGQALGLEAEAQTLGQALREYLGRRPPTRETLGGEVHFLALTPEPQALKLDQHVLSVRLKEDAVYLGQAGEVPRRLKDLLVYRLGERALVLAREGRRLAYTLLPLP | soluble |
| MDIEERINLVLKKPTEEVLTVENLRHLFEIGAPLQHYIGFEISGYIHLGTGLMAGAKIADFQKAGIKTRVFLADWHSWINDKLGGDLEVIQEVALKYFKVGMEKSIEVMGGDPKKVEFVLASEILEKGDYWQTVIDISKNVTLSRVMRSITIMGRQMGEAIDFAKLIYPMMQVADIFYQGVTIAHAGMDQRKAHVIAIEVAQKLRYHPIVHEGEKLKPVAVHHHLLLGLQEPPKWPIESEEEFKEIKAQMKMSKSKPYSAVFIHDSPEEIRQKLRKAFCPAREVRYNPVLDWVEYIIFREEPTEFTVHRPAKFGGDVTYTTFEELKRDFAEGKLHPLDLKNAVAEYLINLLEPIRRYFEKHPEPLELMRSVKITR | soluble |
| MDIIERITKLKNEKNAVILAHNYQPEEIQKIADIIGDSLELCIAARDTDADVIVFCGVDFMAETAKVLNSGKKVLIPEIIETDCPMAHQLPPEIILEAKKKNPDAKVVIYVNTLASAKALADATCTSANADKVVNSFEEDEILFGPDNNLGYFVSKRSNKKIIPMPEGGHCYVHKMFTLDDAKAVKEKYPNAELLIHPESDPKLQETADYVMSTGGMVKHVLNSECSEFIIGTECDMISRLKIELEKAGKSKKLIPLRTDAICKSMKNITLEKIEKCLLEEKHEIMLDEKIIENARKAIERMLSILEHHHHHH | not soluble |
| MDIRARTKIIDIYSNLKYKKPLKSFQKILTTSDSDNCEDFFNIGLNIDKNKITAIGFDGDGCIISTIATELSIKAIENKTINQAKKILSDLIATYKDKNSANQVVEELKLLIEMNVTEKRLQCLLLTPSNLLQWFKNF | not soluble |
| MDISRRNFLKSTASFGAIASLGLPGYSLAAPSNDFRALICVYLAGGNDAINTILPLSDFHYNQYANVRGSLSVAKNTIIPIRLNAHDANNNAVPLGLHPKLSALAPLFQQGDANLVLNSGILNQPVTKQAIEQGDVPLPEQLFSHNSQTASWLRGGMDASTNLGWAGRMLDVLTSDAQITPLYSVHGDTLWLKAMEHRQTVLKKDKAVQLTAVGNPLYEEVYQKLLSQSADNPFSGHFNLMVDESMMMSNILAEQLKLIDDAPLFSSSTLGKQMQTVYKLIASQSALSQQRQVFFVKHTGYDLHDSQLARHPLLLEDLATNLNAMYRAVDKLGMSKNVTTFTMSDFGRRMTNNGNGTDHGWGGHQLLIGGAVNGSAPIGTWPELTLGGQDDYSKGRLIPAIAADQVGSTLAQWMGVSDNAALEYVFPNIRNFTTSNLGFMA | not soluble |
| MDKELNPSIGDYTGRTVDTLQNAVYIRLMTPLGSWWADKTLGSLLHLLQREKDLQRVSLLAEQYADEALQPIVKSGRADKITVRAEQPHDGRLILHIRMDTAAGGFDYRHEVPVI | not soluble |
| MDKFRVQGPTKLQGEVTISGAKNAALPILFAALLAEEPVEIQNVPKLKDVDTSMKLLSQLGAKVERDGSVHIDARDVNVFCAPYDLVKTMRASIWALGPLVARFGQGQVSLPGGCTIGARPVDLHISGLEQLGATIKLEEGYVKASVDGRLKGAHIVMDKVSVGATVTIMCAATLAEGTTIIENAAREPEIVDTANFLITLGAKISGQGTDRIVIEGVERLGGGVYRVLPDRIETGTFLVAAAISRGKIICRNAQPDTLDAVLAKLRDAGADIEVGEDWISLDMHGKRPKAVNVRTAPHPAFPTDMQAQFTLLNLVAEGTGFITETVFENRFMHVPELSRMGAHAEIESNTVICHGVEKLSGAQVMATDLRASASLVLAGCIAEGTTVVDRIYHIDRGYERIEDKLRALGANIERVKGELVPR | soluble |
| MDKQIGFIGCGNMGMAMIGGMINKNIVSSNQIICSDLNTANLKNASEKYGLTTTTDNNEVAKNADILILSIKPDLYASIINEIKEIIKNDAIIVTIAAGKSIESTENAFNKKVKVVRVMPNTPALVGEGMSALCPNEMVTEKDLEDVLNIFNSFGQTEIVSEKLMDVVTSVSGSSPAYVYMIIEAMADAAVLDGMPRNQAYKFAAQAVLGSAKMVLETGIHPGELKDMVCSPGGTTIEAVATLEEKGLRTAIISAMQRCTQKSVELSGQTKKLEHHHHHH | soluble |
